Measured values as given in IntAct's records for PubMed 27773430.

Columns and labels:
casp2_rat Casp2 = casp2_rat Casp2 (UniProt P55215)
pidd1_human PIDD1 = pidd1_human PIDD1 (UniProt Q9HB75)
Chain of pidd1_human PIDD1 (Q9HB75 whole entry): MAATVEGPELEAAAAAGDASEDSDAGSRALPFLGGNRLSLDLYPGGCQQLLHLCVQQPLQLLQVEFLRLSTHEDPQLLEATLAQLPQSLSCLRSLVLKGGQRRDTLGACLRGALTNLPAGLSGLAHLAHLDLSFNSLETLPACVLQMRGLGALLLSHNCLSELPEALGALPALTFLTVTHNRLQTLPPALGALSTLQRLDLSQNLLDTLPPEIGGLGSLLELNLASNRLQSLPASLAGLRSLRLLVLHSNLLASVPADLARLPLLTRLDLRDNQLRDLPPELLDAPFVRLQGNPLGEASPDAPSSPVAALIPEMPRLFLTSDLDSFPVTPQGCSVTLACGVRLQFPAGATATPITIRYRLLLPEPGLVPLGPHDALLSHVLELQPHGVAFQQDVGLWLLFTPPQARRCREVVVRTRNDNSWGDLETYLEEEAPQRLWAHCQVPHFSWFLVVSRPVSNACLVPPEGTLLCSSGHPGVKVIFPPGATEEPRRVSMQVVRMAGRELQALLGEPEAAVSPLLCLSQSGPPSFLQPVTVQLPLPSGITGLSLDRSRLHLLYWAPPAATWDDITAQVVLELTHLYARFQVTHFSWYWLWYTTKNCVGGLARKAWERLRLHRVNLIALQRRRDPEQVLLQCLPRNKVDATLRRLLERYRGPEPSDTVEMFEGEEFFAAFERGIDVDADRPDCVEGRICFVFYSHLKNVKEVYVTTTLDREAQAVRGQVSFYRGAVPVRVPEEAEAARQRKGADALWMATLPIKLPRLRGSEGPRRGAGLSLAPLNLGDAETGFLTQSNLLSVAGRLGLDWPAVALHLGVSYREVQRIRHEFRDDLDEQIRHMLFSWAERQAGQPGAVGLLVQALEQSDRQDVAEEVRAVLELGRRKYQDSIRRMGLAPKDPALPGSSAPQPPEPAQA

Chain of casp2_rat Casp2 (P55215 whole entry): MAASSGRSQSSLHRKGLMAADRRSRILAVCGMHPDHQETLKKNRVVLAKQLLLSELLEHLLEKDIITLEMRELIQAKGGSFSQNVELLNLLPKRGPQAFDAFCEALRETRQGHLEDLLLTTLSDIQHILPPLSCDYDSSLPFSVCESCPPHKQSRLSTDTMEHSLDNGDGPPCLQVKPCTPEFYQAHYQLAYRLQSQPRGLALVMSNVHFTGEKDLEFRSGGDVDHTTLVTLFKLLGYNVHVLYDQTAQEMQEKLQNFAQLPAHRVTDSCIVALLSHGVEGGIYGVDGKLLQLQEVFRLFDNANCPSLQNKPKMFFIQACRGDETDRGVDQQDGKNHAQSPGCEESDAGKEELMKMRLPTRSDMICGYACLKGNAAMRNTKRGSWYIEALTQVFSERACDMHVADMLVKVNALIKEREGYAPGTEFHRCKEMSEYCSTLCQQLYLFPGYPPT
Chain of Death domain-containing protein CRADD (Homo sapiens), P78560 R170H (P78560 whole entry R170H, the tested form may be a part): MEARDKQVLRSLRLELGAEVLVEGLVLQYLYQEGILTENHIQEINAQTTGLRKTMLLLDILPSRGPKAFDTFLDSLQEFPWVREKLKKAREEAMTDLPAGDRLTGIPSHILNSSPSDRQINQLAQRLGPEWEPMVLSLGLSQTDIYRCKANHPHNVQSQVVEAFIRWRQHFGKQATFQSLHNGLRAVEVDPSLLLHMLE
Chain of Death domain-containing protein CRADD (Homo sapiens), P78560 G128R (P78560 whole entry G128R, the tested form may be a part): as the sequence (P78560 whole entry R170H, the tested form may be a part) above, with G128R, H170R counted along it
Chain of Death domain-containing protein CRADD (Homo sapiens), P78560 R170C (P78560 whole entry R170C, the tested form may be a part): as the sequence (P78560 whole entry R170H, the tested form may be a part) above, with H170C counted along it
Chain of Death domain-containing protein CRADD (Homo sapiens), P78560 F164C (P78560 whole entry F164C, the tested form may be a part): as the sequence (P78560 whole entry R170H, the tested form may be a part) above, with F164C, H170R counted along it

Substance	effect of a mutation on the interaction (casp2_rat Casp2)	effect of a mutation on the interaction (pidd1_human PIDD1)
Death domain-containing protein CRADD (Homo sapiens), P78560 F164C	with no effect	with no effect
Death domain-containing protein CRADD (Homo sapiens), P78560 G128R	decreasing interaction strength	disrupting interaction strength
Death domain-containing protein CRADD (Homo sapiens), P78560 R170C	decreasing interaction strength	decreasing interaction strength
Death domain-containing protein CRADD (Homo sapiens), P78560 R170H	decreasing interaction strength	decreasing interaction strength
